Assay results as given in article PMC8386582 (Biomaterials, 2020).

Target: CD19 (Homo sapiens (Raji, SU-DHL-7 cells), UniProt P15391)
Experiment: flow cytometry on cells

Chain of CD19 (P15391 20-556): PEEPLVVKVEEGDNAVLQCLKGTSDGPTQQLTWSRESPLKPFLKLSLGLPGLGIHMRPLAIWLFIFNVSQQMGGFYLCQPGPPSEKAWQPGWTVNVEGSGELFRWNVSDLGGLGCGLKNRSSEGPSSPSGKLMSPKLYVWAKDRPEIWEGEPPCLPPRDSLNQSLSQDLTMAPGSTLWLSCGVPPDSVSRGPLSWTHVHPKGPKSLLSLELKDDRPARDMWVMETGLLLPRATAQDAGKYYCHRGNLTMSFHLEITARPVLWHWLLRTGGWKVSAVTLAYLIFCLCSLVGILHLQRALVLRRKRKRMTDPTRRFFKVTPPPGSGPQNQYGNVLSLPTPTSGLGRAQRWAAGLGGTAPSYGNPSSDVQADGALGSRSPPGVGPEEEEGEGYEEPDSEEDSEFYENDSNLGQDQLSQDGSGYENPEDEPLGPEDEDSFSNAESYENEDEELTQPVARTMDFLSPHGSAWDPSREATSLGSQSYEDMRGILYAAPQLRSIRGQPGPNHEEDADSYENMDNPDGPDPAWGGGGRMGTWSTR

binding result: binds
B1: aCD19A (anti-CD19-A192) Nanoworm (scFv, V domains shown)
VH: QVQLQQSGAELVRPGSSVKISCKASGYAFSSYWMNWVKQRPGQGLEWIGQIWPGDGDTNYNGKFKGKATLTADESSSTAYMQLSSLASEDSAVYFCARRETTTVGRYYYAMDYWGQGTTVTVSS
VL: DIQLTQSPASLAVSLGQRATISCKASQSVDYDGDSYLNWYQQIPGQPPKLLIYDASNLVSGIPPRFSGSGSGTDFTLNIHPVEKVDAATYHCQQSTEDPWTFGGGTKLEIK
